# Test results as given in US20100144645A1, “COMPOSITIONS AND METHODS FOR ENHANCING […] POTENCY OF […]-COMPOUNDS, A[…] ADVERSE SIDE EFFECTS, AND […] ABUSE” (SHIRE LLC, priority 2006, published 2010).
# Residues, ends and D or L forms follow the SMILES beside them. *: point of attachment. X1 = COc1ccc2c3c1OC1C(O*)=CCC4[C@@H](C2)N(C)CC[C@]314
# Experiments:
# [1] = Oral bioavailability of hydrocodone conjugates (plasma hydrocodone plus hydromorphone); details: for bioavailabiltty (% HC) oral AUC / bioavailabiltty (% HC) oral Cmax: rats, relative to hydrocodone; for Oral:IN Index AUC: ratio of oral to IN AUC (% HC); for Oral:IN Index Cmax: ratio of oral to IN Cmax (% HC)
# [2] = stability 90 C., 20 min (V, BP, TW, BS) of hydrocodone conjugates; details: for stability 90 C., 20 min BP: BP (abbreviation not defined); for stability 90 C., 20 min BS: BS (abbreviation not defined); for stability 90 C., 20 min TW: TW (abbreviation not defined); for stability 90 C., 20 min V: V (abbreviation not defined)
# [3] = Intranasal bioavailability of hydrocodone conjugates; details: rats, relative to hydrocodone
# [4] = Intranasal bioavailability of hydromorphone conjugates; details: rats; for IN AUC %: corrected value calculated based on the bioavailability of the control (HM); for IN Cmax %: corrected value calculated based on the control (HM)
# [5] = Oral bioavailability of hydromorphone conjugates; details: rats; for Oral AUC %: corrected value calculated based on the bioavailability of the control (HM); for Oral Cmax %: corrected value calculated based on the control (HM)
Compound,bioavailabiltty (% HC) oral AUC [1] [% HC],bioavailabiltty (% HC) oral Cmax [1] [% HC],Oral:IN Index AUC [1],Oral:IN Index Cmax [1],"stability 90 C., 20 min BP [2]","stability 90 C., 20 min BS [2]","stability 90 C., 20 min TW [2]","stability 90 C., 20 min V [2]",bioavailabiltty (% HC) IN AUC [3] [% HC],bioavailabiltty (% HC) IN Cmax [3] [% HC],IN AUC % [4] [%],IN Cmax % [4] [%],Oral AUC % [5] [%],Oral Cmax % [5] [%]
CC[C@H](C)[C@H](NC(=O)[C@H](CC(=O)O)NC(=O)[C@H](CC(=O)O)NC(=O)[C@H](CCC(=O)O)NC(=O)[C@@H](N)CCC(=O)O)C(=O)OC1=CCC2[C@H]3Cc4ccc(OC)c5c4[C@@]2(CCN3C)C1O5 (stereo partly shown) [Glu2-Asp2-Ile-HC] (H-EEDDI-X1),108,129,2.04,1.59,77,100,15,1,53,81,–,–,–,–
"CC[C@H](C)[C@H](NC(=O)CNC(=O)CNC(=O)[C@H](CCC(=O)O)NC(=O)[C@@H](N)CCC(=O)O)C(=O)OC1=CCC2[C@H]3Cc4ccc(OC)c5c4[C@@]2(CCN3C)C1O5 (stereo partly shown) [Glu2-Gly2-Ile-HC, Glu2-Gly2-Ile-Hydrocodone] (H-EEGGI-X1)",81,77,–,–,99,99,23,0,50,56,–,–,–,–
COc1ccc2c3c1OC1C(OC(=O)[C@H](Cc4ccccc4)NC(=O)CNC(=O)CNC(=O)[C@H](CCC(=O)O)NC(=O)[C@@H](N)CCC(=O)O)=CCC4[C@@H](C2)N(C)CC[C@]314 (stereo partly shown) [Glu2-Gly2-Phe-HC] (H-EEGGF-X1),110,112,1.24,1.15,100,100,100,0,89,97,–,–,–,–
CC[C@H](C)[C@H](NC(=O)[C@H](Cc1ccccc1)NC(=O)[C@H](Cc1ccccc1)NC(=O)[C@H](CCC(=O)O)NC(=O)[C@@H](N)CCC(=O)O)C(=O)OC1=CCC2[C@H]3Cc4ccc(OC)c5c4[C@@]2(CCN3C)C1O5 (stereo partly shown) [Glu2-Phe2-Ile-HC] (H-EEFFI-X1),96,129,1.41,1.70,100,100,33,0,68,76,–,–,–,–
"COc1ccc2c3c1OC1C(OC(=O)[C@H](Cc4ccccc4)NC(=O)[C@H](Cc4ccccc4)NC(=O)[C@H](Cc4ccccc4)NC(=O)[C@H](CCC(=O)O)NC(=O)[C@@H](N)CCC(=O)O)=CCC4[C@@H](C2)N(C)CC[C@]314 (stereo partly shown) [Glu2-Phe3-HC, Glu2-Phe3-Hydrocodone] (H-EEFFF-X1)",83,89,3.07,1.89,100,84,57,3,27,47,–,–,–,–
CC[C@H](C)[C@H](NC(=O)[C@H](CCC(=O)O)NC(=O)[C@@H](N)CCC(=O)O)C(=O)OC1=CCC2[C@H]3Cc4ccc(OC)c5c4[C@@]2(CCN3C)C1O5 (stereo partly drawn) [Glu-Glu-Ile-HC],83,112,1.60,1.90,94,100,26,0,52,59,–,–,–,–
CC[C@H](C)[C@H](NC(=O)[C@H](CCC(=O)O)NC(=O)[C@H](CCC(=O)O)NC(=O)CNC(=O)CN)C(=O)OC1=CCC2[C@H]3Cc4ccc(OC)c5c4[C@@]2(CCN3C)C1O5 (stereo partly shown) [Gly2-Glu2-Ile-HC] (H-GGEEI-X1),96,119,1.45,1.55,74,100,11,0,66,77,–,–,–,–
CC[C@H](C)[C@H](NC(=O)[C@@H]1CCCN1C(=O)[C@@H]1CCCN1C(=O)CNC(=O)CN)C(=O)OC1=CCC2[C@H]3Cc4ccc(OC)c5c4[C@@]2(CCN3C)C1O5 (stereo partly shown) [Gly2-Pro2-Ile-HC] (H-GGPPI-X1),94,121,2.14,2.16,73,100,70,0,44,56,–,–,–,–
COc1ccc2c3c1OC1C(OC(=O)[C@H](Cc4ccccc4)NC(=O)[C@@H]4CCCN4C(=O)[C@@H](N)CC(C)C)=CCC4[C@@H](C2)N(C)CC[C@]314 (stereo partly drawn) [Leu-Pro-Phe-HC],106,125,1.28,1.24,100,100,100,2,83,101,–,–,–,–
CC[C@H](C)[C@H](NC(=O)[C@H](CC(=O)O)NC(=O)[C@H](CC(=O)O)NC(=O)[C@H](CCCCN)NC(=O)[C@@H](N)CCCCN)C(=O)OC1=CCC2[C@H]3Cc4ccc(OC)c5c4[C@@]2(CCN3C)C1O5 (stereo partly shown) [Lys2-Asp2-Ile-HC] (H-KKDDI-X1),90,121,2.31,2.16,64,100,0,0,39,56,–,–,–,–
CC[C@H](C)[C@H](NC(=O)[C@@H]1CCCN1C(=O)[C@@H]1CCCN1C(=O)[C@H](CCCCN)NC(=O)[C@@H](N)CCCCN)C(=O)OC1=CCC2[C@H]3Cc4ccc(OC)c5c4[C@@]2(CCN3C)C1O5 (stereo partly shown) [Lys2-Pro2-Ile-HC] (H-KKPPI-X1),80,76,1.18,0.81,72,100,66,0,68,94,–,–,–,–
CC[C@H](C)[C@H](NC(=O)[C@H](CCCCN)NC(=O)[C@@H](N)CCCCN)C(=O)OC1=CCC2[C@H]3Cc4ccc(OC)c5c4[C@@]2(CCN3C)C1O5 (stereo partly drawn) [Lys-Lys-Ile-HC],80,76,1.18,0.81,100,97,96,0,68,94,–,–,–,–
CC[C@H](C)[C@H](NC(=O)[C@@H]1CCCN1)C(=O)N[C@H](C(=O)OC1=CCC2[C@H]3Cc4ccc(OC)c5c4[C@@]2(CCN3C)C1O5)[C@@H](C)CC (stereo partly drawn) [Pro-Ile-Ile-HC],104,99,1.21,0.97,47,100,83,0,86,102,–,–,–,–
CC[C@H](C)[C@H](NC(=O)[C@H](CC(C)C)NC(=O)[C@@H]1CCCN1)C(=O)OC1=CCC2[C@H]3Cc4ccc(OC)c5c4[C@@]2(CCN3C)C1O5 (stereo partly drawn) [Pro-Leu-Ile-HC],141,172,–,–,100,100,100,0,87,101,–,–,–,–
COc1ccc2c3c1OC1C(OC(=O)[C@H](CC(C)C)NC(=O)[C@@H]4CCCN4C(=O)[C@@H]4CCCN4)=CCC4[C@@H](C2)N(C)CC[C@]314 (stereo partly drawn) [Pro-Pro-Leu-HC],94,108,2.04,2.25,100,100,100,2,46,48,–,–,–,–
CC(C)C[C@H](NC(=O)[C@H](Cc1ccc(O)cc1)NC(=O)[C@@H](N)Cc1ccc(O)cc1)C(=O)OC1=CCC2[C@H]3Cc4ccc(O)c5c4[C@@]2(CCN3C)C1O5 (stereo partly shown) [YYL-HM],–,–,–,–,–,–,–,–,–,–,74,75,12,30
CC(C)[C@H](NC(=O)[C@H](Cc1ccc(O)cc1)NC(=O)[C@@H](N)Cc1ccc(O)cc1)C(=O)OC1=CCC2[C@H]3Cc4ccc(O)c5c4[C@@]2(CCN3C)C1O5 (stereo partly shown) [YYV-HM],–,–,–,–,–,–,–,–,–,–,73,73,30,53
